For 1 substance, EC50 results are on record in article PMC8041869.

The target in this experiment is SARS-CoV-2 S-protein S1 subunit (SARS-CoV-2). The experiment in a line: ELISA. Background: ELISA stands for enzyme-linked immunosorbent assay.

As a reminder, the EC50 is the concentration giving half of the maximal effect. Higher therefore signals a need for much substance. Consider “human ACE2 extracellular domain, wildtype, Fc-tagged dimeric form (from UniProt Q9BYF1-1 18-615) (Fc fusion)”, for which the EC50 is 10.4 nM.
